A short description of this assay: Experiment 8: interaction of BMX-001 with t-PA (blood clot dissolution). Further details: species or system rat. As to conditions: rat blood clots; 1 mg/ml t-PA with or without 50 μg/ml BMX-001; 37° C. for 30 minutes. How it is done:
Fresh arterial blood samples were collected from young male rats and distributed into 21 pre-weighed centrifuge tubes. After sitting at 37° C. for 3 hours, the blood clots were formed. The supernatant was removed from these tubes and then the tubes with blood clots were weighed. The weight of the blood clot was calculated (=the tube with blood clot-pre-weighed tube). Then, 1 ml saline, t-PA (1 mg/ml) or t-PA (1 mg/ml) plus BMX-001 (50 μg/ml) were added (n=7 for each group) and tubes placed in 37° C. dry incubator for 3 hours. The liquids were then removed from the tubes. The tubes with remaining blood clots were weighed again. The percentage of blood clot dissolved by t-PA was calculated.

B1: tissue plasminogen activator (protein, UniProt P00750 36-562, looked up)
Tissue-type plasminogen …: SYQVICRDEKTQMIYQQHQSWLRPVLRSNRVEYCWCNSGRAQCHSVPVKSCSEPRCFNGGTCQQALYFSDFVCQCPEGFAGKCCEIDTRATCYEDQGISYRGTWSTAESGAECTNWNSSALAQKPYSGRRPDAIRLGLGNHNYCRNPDRDSKPWCYVFKAGKYSSEFCSTPACSEGNSDCYFGNGSAYRGTHSLTESGASCLPWNSMILIGKVYTAQNPSAQALGLGKHNYCRNPDGDAKPWCHVLKNRRLTWEYCDVPSCSTCGLRQYSQPQFRIKGGLFADIASHPWQAAIFAKHRRSPGERFLCGGILISSCWILSAAHCFQERFPPHHLTVILGRTYRVVPGEEEQKFEVEKYIVHKEFDDDTYDNDIALLQLKSDSSRCAQESSVVRTVCLPPADLQLPDWTECELSGYGKHEALSPFYSERLKEAHVRLYPSSRCTSQHLLNRTVTDNMLCAGDTRSGGPQANLHDACQGDSGGPLVCLNDGRMTLVGIISWGLGCGQKDVPGVYTKVTNYLDWIRDNMRP
notes: standard thrombolytic therapy
As to B1, the “Percentage of blood clot dissolved” value came to 44.77±25.77%.

The values above are taken from patent US20240342190A1, “METHODS FOR REDUCING ISCHEMIA-REPERFUSION INJURIES” (BioMimetix JV, LLC, priority 2023, published 2024).
